Here are results for 26 sequences from the supplement of paper PMC9732359.

A short description of the series: protein stability index of a GFP-peptide fusion (yeast GPS) (PSI 1-4); higher = more stable; sorted into four equal gates, so the index is relative within each strain. The method in brief: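 Sequencing reads from sorted gates were used to score each peptide. The library consisted of tiled 17-residue yeast protein peptides fused downstream of GFP on a Cherry-expressing plasmid, pooled and carried in yeast. Mid-log cultures in leucine-free medium were split into four equal gates by GFP/Cherry ratio, and each gate's plasmids were PCR-amplified and Illumina-sequenced. The protein stability index adds up, over all gates, the read frequency multiplied by the gate number.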

± gives the uncertainty stated by the source.

Consider KHITVRLTAKRLIEHDP [SRP14], for which the protein stability index reads like this: (doa10∆) 2.35 ± 0.057; (pdr5∆) 2.52 ± 0.044; (san1∆) 2.51 ± 0.064; (ubr1∆) 2.65 ± 0.035.

On to LDERFASRVALNKEKLG [IRR1], for which the protein stability index came to 1.27 ± 0.057 (doa10∆), 1.52 ± 0.1 (pdr5∆), 1.57 ± 0.18 (san1∆) and 1.55 ± 0.087 (ubr1∆).

As to DQLEDLREHFKNTEEGK [QCR6], the protein stability index reads like this: (doa10∆) 2.75 ± 0.27; (pdr5∆) 3.51 ± 0.14; (san1∆) 3.36 ± 0.072.

PKMGVSSSSLECATCHG [RPO31] yielded a protein stability index (doa10∆) of 2.97 ± 0.085, a protein stability index (pdr5∆) of 3.34 ± 0.049, a protein stability index (san1∆) of 3.32 ± 0.097 and a protein stability index (ubr1∆) of 3.2 ± 0.056.

For the sequence MDRDSESEEAETKDIRK [SRB4], the protein stability index reads like this: (doa10∆) 3.21 ± 0.17; (pdr5∆) 3.13 ± 0.14; (san1∆) 2.62 ± 0.28; (ubr1∆) 2.95 ± 0.16.

For the sequence STSYAIKKKDELERVAK [RPS5], the protein stability index (doa10∆) worked out at 3.44 ± 0.084, the protein stability index (pdr5∆) was 3.52 ± 0.11, the protein stability index (san1∆) was 3.33 ± 0.061 and the protein stability index (ubr1∆) is 3.35 ± 0.081.

Consider TRNSLGNVIQFIYGEDG [RPO21], for which the protein stability index by setting is: (doa10∆) 3.01 ± 0.06; (pdr5∆) 2.92 ± 0.053; (san1∆) 3.25 ± 0.042; (ubr1∆) 3.28 ± 0.037.

As to GDYSQATVLSRKILKKT [RPN5], the protein stability index (doa10∆) is 2.68 ± 0.054, the protein stability index (pdr5∆) was determined as 2.87 ± 0.067, the protein stability index (san1∆) worked out at 2.75 ± 0.06 and the protein stability index (ubr1∆) turned out to be 2.95 ± 0.051.

ASAASEAIRDPKNSSSP [SSN8] yielded a protein stability index (doa10∆) of 2.61 ± 0.19, a protein stability index (pdr5∆) of 3.18 ± 0.2, a protein stability index (san1∆) of 2.46 ± 0.25 and a protein stability index (ubr1∆) of 3.13 ± 0.13.

PKAVVDHINGSGKRKPT [GAL11] came in with a protein stability index (doa10∆) of 2.25 ± 0.076, a protein stability index (pdr5∆) of 2.81 ± 0.064, a protein stability index (san1∆) of 1.52 ± 0.11 and a protein stability index (ubr1∆) of 2.16 ± 0.079.

KDYSQILKEEFPKIDSL [RPN5] gave a protein stability index (pdr5∆) of 2.35 ± 0.24.

Consider SDKDATTDGKNDDEEEE [RPN1], for which, for the setting “pdr5∆”, the protein stability index worked out at 3.33 ± 0.26.

Turning to NIYDQLRNKLIESNKLA [RRP6], the protein stability index was 2.34 ± 0.073 (doa10∆), 2.45 ± 0.084 (pdr5∆), 1.9 ± 0.09 (san1∆) and 2.22 ± 0.073 (ubr1∆).

On to FQKFLTGHPKGAAGAWM [FAS2], for which the protein stability index reads like this: (doa10∆) 1.31 ± 0.25; (ubr1∆) 1.56 ± 0.18.

With SSLEARYFFYLSKINAI [RPN3], the protein stability index was 1.74 ± 0.05 (doa10∆), 2.17 ± 0.064 (pdr5∆), 1.95 ± 0.1 (san1∆) and 1.75 ± 0.042 (ubr1∆).

Take MNTTLGSIGSRKYSFNY [YAR002W/NUP60]: the protein stability index worked out at 1.75 ± 0.06 (doa10∆), 2.29 ± 0.066 (pdr5∆), 1.87 ± 0.095 (san1∆) and 1.41 ± 0.041 (ubr1∆).

Regarding DNEVQRTMLELITQLDG [RPT1], the protein stability index by setting is: (doa10∆) 2.55 ± 0.12; (pdr5∆) 3.21 ± 0.12; (san1∆) 2.79 ± 0.14; (ubr1∆) 2.67 ± 0.15.

As to NNNGLPQNGNINNNINI [GAL11], the protein stability index was 3.13 ± 0.05 (doa10∆), 3.29 ± 0.071 (pdr5∆), 3.39 ± 0.044 (san1∆) and 3.11 ± 0.048 (ubr1∆).

On to TLDKKDSIPLRITNSFY [RPN9], for which the protein stability index is 2.52 ± 0.13 (doa10∆), 2.81 ± 0.11 (pdr5∆), 2.9 ± 0.096 (san1∆) and 2.92 ± 0.13 (ubr1∆).

Turning to HTLCNRCGRRSFHVQKK [RPL37A], the protein stability index is, setting by setting: (doa10∆) 2.98 ± 0.035; (pdr5∆) 2.72 ± 0.048; (san1∆) 2.83 ± 0.031; (ubr1∆) 2.85 ± 0.029.

SNIDYQTLLANSDHAKF [SNF2] returned a protein stability index (doa10∆) of 2.24 ± 0.084, a protein stability index (pdr5∆) of 2.28 ± 0.093, a protein stability index (san1∆) of 2.32 ± 0.11 and a protein stability index (ubr1∆) of 2.53 ± 0.075.

Regarding VRVQFQFTGFLLHEMTQ [GRR1], the protein stability index is, setting by setting: (doa10∆) 1.83 ± 0.067; (pdr5∆) 2.08 ± 0.061; (san1∆) 1.91 ± 0.074; (ubr1∆) 1.85 ± 0.053.

On to LRSTENGIVDQVLVTTN [RPB2], for which the protein stability index by setting is: (doa10∆) 2.39 ± 0.095; (pdr5∆) 2.03 ± 0.11; (san1∆) 2.46 ± 0.099; (ubr1∆) 1.82 ± 0.055.

On to ETAERNIIQAKRDAKAA [RPL7A], for which the protein stability index is, setting by setting: (pdr5∆) 2.06 ± 0.21; (san1∆) 1.93 ± 0.16.

As for QNSKFLKVNVTLDNPLL [YJL039C/NUP192], the protein stability index is, setting by setting: (doa10∆) 2.72 ± 0.088; (pdr5∆) 2.57 ± 0.083; (san1∆) 2.91 ± 0.058; (ubr1∆) 2.36 ± 0.044.

KPAFSFGAKSDEKKDSD [YJL041W/NSP1] gave a protein stability index (doa10∆) of 3.35 ± 0.087, a protein stability index (pdr5∆) of 3.25 ± 0.069, a protein stability index (san1∆) of 3.21 ± 0.058 and a protein stability index (ubr1∆) of 3.46 ± 0.056.
